In patent publication US20220363775A1 (Memorial Sloan Kettering, published 2022):
Changes are numbered by the printed parent chain. One block for each binder: values may come before it.

Columns and labels:
[1] = target: T1, human Adhesion G protein-coupled receptor E2 (ADGRE2) (human, UniProt Q9UHX3 24-823); experiment: flow cytometry, scFv titration on EL4 cells overexpressing ADGRE2
T1 construct: No signal peptide limits are stated; also called EMR2; CD312
T1 sequence: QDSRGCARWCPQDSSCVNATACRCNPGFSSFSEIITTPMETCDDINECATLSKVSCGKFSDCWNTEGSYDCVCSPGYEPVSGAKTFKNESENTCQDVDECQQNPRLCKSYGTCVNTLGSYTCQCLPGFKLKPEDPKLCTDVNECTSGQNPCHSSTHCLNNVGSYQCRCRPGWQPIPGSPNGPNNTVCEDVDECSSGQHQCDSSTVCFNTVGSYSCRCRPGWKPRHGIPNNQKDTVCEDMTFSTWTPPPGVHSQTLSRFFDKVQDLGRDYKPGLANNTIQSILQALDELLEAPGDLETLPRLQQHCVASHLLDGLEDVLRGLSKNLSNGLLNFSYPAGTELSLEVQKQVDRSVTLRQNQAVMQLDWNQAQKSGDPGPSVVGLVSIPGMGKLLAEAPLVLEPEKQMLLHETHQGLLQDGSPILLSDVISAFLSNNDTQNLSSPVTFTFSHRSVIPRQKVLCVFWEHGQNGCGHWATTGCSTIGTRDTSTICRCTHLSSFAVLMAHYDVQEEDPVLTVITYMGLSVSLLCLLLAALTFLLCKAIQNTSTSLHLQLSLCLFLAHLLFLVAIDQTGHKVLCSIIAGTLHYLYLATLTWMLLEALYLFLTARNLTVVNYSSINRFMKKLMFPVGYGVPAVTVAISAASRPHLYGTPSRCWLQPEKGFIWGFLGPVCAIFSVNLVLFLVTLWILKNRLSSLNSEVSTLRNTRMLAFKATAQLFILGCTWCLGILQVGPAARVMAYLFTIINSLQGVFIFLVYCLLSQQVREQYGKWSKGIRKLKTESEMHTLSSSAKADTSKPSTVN
Procedure: This example illustrates the on-cell binding for the anti-ADGRE2 scFvs as measured by flow cytometry. The on-cell binding for the anti-ADGRE2 scFvs was assessed by flow cytometry on the E4 cells overexpressing ADGRE2. Each of the scFvs were tested for binding to ADGRE2 and compared to the Reference 1 mAb. Briefly, 100,000 cells per well, were plated in 96 well V bottom plate, scFvs were diluted to 200 nMscFv then 1:4 serially down to 0.01 nM. A dose dependent titration of the scFvs validated recombinant scFvs folding and binding to ADGRE2. EC₅₀ affinities were compared in order to better interpret any differences seen in-vivo that might be caused by variations in affinities resulting from the humanization process Data was analyzed using Prism software, using a four parameter regression. The approximate EC₅₀ values were determined using equation: Y=Bottom+(Top−Bottom)/(1+10\hat{ }((Log EC₅₀−X)*HillSlope)) where the fitted parameters are defined as follows: Bottom, the lower plateau describing minimum binding achievable; Top, the upper plateau describing the maximum binding achievable; Log EC50, the inflection point of the dose response curve also known as the concentration producing a half-maximal response; and Hill-Slope, the slope of the dose response curve.

ADGRE3 = target: T2, ADGRE3 (human, UniProt Q9BY15 22-652); experiment: cell microarray screen on HEK293 cells overexpressing human membrane proteins
T2 construct: whole, on cells
T2 sequence (looked up): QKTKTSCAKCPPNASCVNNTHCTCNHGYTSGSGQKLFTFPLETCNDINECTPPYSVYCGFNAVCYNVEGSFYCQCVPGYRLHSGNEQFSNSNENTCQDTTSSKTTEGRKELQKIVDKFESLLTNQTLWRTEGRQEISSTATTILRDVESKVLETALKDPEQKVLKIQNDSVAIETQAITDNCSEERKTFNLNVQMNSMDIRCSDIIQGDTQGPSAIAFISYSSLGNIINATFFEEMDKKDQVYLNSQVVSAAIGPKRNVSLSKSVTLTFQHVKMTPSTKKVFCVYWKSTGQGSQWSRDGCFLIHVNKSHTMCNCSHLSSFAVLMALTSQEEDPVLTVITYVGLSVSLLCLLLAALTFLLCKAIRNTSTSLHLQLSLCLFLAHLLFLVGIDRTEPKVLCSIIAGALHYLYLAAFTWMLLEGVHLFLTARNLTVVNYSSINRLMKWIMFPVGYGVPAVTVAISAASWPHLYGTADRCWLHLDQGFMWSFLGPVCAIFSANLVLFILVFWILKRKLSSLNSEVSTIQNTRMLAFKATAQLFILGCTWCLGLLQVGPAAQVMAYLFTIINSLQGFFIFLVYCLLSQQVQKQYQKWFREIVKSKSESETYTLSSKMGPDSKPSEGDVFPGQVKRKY
Procedure: (§1) The off-target binding interactions of ADGRE2 scFv (ADGRE2-A) and CLEC12A scFv (CLEC12A-A) to human plasma membrane proteins were carried out in a 4-phase approach: (1) pre-screening to determine the optimal concentrations of purified recombinant ADGRE2 scFv-Fc and CLEC12A scFv-Fc test proteins for the screening; (2) screening for binding of the test proteins against fixed HEK293 cells overexpressing 5,474 full-length human plasma membrane proteins and cell surface tethered human secreted proteins and 371 human cell surface heterodimers, which identified library hits; (3) confirmatory/specific screens using fixed-cell and live-cell microarrays; (4) flow cytometry-based follow-on study to investigate further identified test protein-specific interactions on live cells; and (5) cell-to-cell binding assays to confirm positive hits. The table below summarizes the off-binding data for ADGRE2 scFv and CLEC12A scFv.

ADGRE5 = target: T3, ADGRE5 (human, UniProt P48960 21-835); experiment: as above
T3 construct: whole, on cells
T3 sequence (looked up): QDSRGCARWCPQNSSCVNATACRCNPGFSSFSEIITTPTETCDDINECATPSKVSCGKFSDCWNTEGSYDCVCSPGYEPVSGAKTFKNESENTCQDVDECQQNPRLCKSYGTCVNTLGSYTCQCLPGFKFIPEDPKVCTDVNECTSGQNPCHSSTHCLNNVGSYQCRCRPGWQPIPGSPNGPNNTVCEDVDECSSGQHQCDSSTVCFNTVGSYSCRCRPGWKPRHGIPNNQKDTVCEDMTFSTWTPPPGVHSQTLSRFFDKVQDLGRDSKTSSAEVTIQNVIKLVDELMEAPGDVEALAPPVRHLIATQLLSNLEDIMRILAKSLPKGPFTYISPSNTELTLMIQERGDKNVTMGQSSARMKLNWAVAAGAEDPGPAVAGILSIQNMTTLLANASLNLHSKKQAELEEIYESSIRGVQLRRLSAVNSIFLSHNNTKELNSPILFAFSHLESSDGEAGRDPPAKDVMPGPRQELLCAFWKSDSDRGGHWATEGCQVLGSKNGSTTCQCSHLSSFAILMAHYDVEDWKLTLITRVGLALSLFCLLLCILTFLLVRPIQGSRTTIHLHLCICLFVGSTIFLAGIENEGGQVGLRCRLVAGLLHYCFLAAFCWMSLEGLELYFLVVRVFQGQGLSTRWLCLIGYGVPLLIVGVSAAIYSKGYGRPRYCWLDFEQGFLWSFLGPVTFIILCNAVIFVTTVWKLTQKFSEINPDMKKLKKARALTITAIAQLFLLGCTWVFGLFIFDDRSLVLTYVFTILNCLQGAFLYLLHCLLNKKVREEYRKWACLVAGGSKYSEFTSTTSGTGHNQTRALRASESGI
Procedure: as §1

ADGRE1 = target: T4, ADGRE1 (human, UniProt Q14246 21-886); experiment: as above
T4 construct: whole, on cells
T4 sequence (looked up): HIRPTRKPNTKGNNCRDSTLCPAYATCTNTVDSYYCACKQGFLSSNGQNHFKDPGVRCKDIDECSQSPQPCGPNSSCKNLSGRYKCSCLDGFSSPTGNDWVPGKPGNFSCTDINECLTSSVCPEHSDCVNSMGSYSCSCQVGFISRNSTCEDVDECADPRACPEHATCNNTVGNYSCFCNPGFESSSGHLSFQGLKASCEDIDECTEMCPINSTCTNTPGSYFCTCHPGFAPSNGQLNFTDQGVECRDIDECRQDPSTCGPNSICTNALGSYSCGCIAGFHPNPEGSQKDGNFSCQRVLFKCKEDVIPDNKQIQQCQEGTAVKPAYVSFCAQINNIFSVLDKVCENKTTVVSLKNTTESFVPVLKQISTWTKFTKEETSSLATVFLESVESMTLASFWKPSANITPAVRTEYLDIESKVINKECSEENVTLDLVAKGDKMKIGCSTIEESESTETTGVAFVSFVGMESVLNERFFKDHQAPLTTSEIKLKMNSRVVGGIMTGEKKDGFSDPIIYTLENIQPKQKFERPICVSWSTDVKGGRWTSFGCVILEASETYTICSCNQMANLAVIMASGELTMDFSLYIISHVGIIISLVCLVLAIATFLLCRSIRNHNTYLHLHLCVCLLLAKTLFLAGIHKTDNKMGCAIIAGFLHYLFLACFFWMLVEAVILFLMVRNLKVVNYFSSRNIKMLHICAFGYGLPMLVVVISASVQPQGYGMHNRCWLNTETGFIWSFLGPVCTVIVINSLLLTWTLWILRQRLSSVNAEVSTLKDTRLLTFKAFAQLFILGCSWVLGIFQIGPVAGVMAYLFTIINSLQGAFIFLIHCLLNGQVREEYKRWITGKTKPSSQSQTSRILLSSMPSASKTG
Procedure: as §1

B2: ADGRE2-C scFv (scFv)
scFv: QVQLQQSGAEVKKPGASVKLSCKASGYTFTNYWMQWVRQAPGQGLEWIGAVYPGDGDTRYTQKFQGRATLTADTSTSTVYMEVSSLRSEDTAVYYCARGFTAYGMDYWGQGTTVTVSSGGGGSGGGGSGGGGSEIVLTQSPATMSASPGERVTMSCSASSSVSYMHWYQQKSGLSPKRWIYDTSKLASGVPDRFSGSGSGTDYTFTISRMEPEDFATYYCQQWSSNPLTFGGGTKLEIK
notes: Recombinant humanized scFv; Any tag is not described
EC50 [1]: 53.2 nM

B3: ADGRE2 scFv-Fc (purified recombinant ADGRE2-A scFv fused to Fc) (Fc fusion)
chain: QVQLQQSGAEVAKPGASVKLSCKASGYTFTNYWMQWIKQAPGQGLEWIGAVYPGDGDTRHTQKFKGKATLTADKSTSTAYMEVSSLRSEDTAVYYCARGFTAYGMDYWGQGTTVTVSSGGGGSGGGGSGGGGSEIVLTQSPATMSASPGERVTMSCSASSSVSYMHWYQQKSGQSPKRWIYDTSKLASGVPARFSGSGSGTDYTFTISSMEPEDFATYYCQQWSSNPLTFGGGTKLEIK
notes: also called ADGRE2 scFv (ADGRE2-A); not shown: Fc part (and any linker) of the scFv-Fc is not described
binding result (ADGRE3): no binding
binding result (ADGRE5): no binding
binding result (ADGRE1): no binding

B5: ADGRE2-F scFv (scFv)
scFv: B2 scFv with V37I, V79A, M144L, S172P, S175A, K177R
notes: as for B2
EC50 [1]: 16.4 nM

Further binders by falling EC50 [1], results first:

EC50 [1]: 93.8 nM
B4: ADGRE2-A scFv (scFv)
scFv: B3 chain
notes: as for B2

EC50 [1]: 55.3 nM
B6: ADGRE2-B scFv (scFv)
scFv: B2 scFv with V37I, T76I, V79A, S85R, E89D
notes: as for B2

EC50 [1]: 16.4 nM
B1: ADGRE2-D scFv (scFv)
scFv: QVQLQQSGAEVKKPGASVKVSCKASGYTFTNYWMQWVRQAPGQGLEWMGAVYPGDGDTRHTQKFKGRVTMTRDTSTSTVYMELSSLRSEDTAVYYCARGFTAYGMDYWGQGTLVTVSSASTGGGGSGGGGSGGGGSEIVLTQSPATLSLSPGERATLSCSASSSVSYMHWYQQKPGLAPRLLIYDTSKLASGIPDRFSGSGSGTDFTLTISRLEPEDFAVYYCQQWSSNPLTFGQGTKVEIK
notes: as for B2

EC50 [1]: 10.6 nM
B7: ADGRE2-E scFv (scFv)
scFv: QVQLQQSGAEVKKPGASVKVSCKASGYTFTNYWMQWVRQAPGQGLEWIGAVYPGDGDTRHTQKFKGRVTMTADKSTSTVYMELSSLRSEDTAVYYCARGFTAYGMDYWGQGTLVTVSSASTGGGGSGGGGSGGGGSQIVLTQSPATLSLSPGERATLTCSASSSVSYMHWYQQKPGLSPKRWIYDTSKLASGVPDRFSGSGSGTDYTFTIRRLEPEDFATYYCQQWSSNPLTFGQGTKVEIK
notes: as for B2
